Test results: the RNAGym collection of RNA variant scans (doi:10.1073/pnas.2313332121)

B1: TPR t1 (parent)
chain: GACCAAUCUGCCCUCAGAGCUCGAGAACAUCUUCGGAUGCAGAGGAGGCAGGCUUCGGUGGCGCGAUAGCGCCAACGUCCUCAACCUCCAAUGCAUCCCACCACAUGAUGAUGCCUGAAGAGCCUUGGUUUUUUG

Variants of: B1
Experiment: polymerase ribozyme fitness, log enrichment relative to wild type (log ratio); higher = more active; in vitro selection for triplet polymerase activity
How it was run: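 To select mutant libraries of each subunit of a heterodimeric triplet polymerase ribozyme, built by PCR and transcribed, each was annealed with a biotinylated primer, partner subunit and triplets, then incubated frozen at −7 °C. Extended constructs were gel-excised, captured on streptavidin beads and amplified by RT-PCR, in one round carried out in triplicate. Illumina sequencing of input and output libraries kept genotypes with ≥10 input reads and ≥1 read per output. Fitness is the base-2 logarithm of genotype enrichment relative to wild-type enrichment, from inverse-variance-weighted replicate averages.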

Row | Variant | polymerase ribozyme fitness (log ratio)
1 | GACCAAUCUGCCCUCAGAGCUCGAGAACAUCUUAGGAUGCAGAGGAGGCAGGCUUCGGUGGCGCGAUAGCGCCAACGACCUCAACCUCCAAUGCAUCCCACCACAUGAUGAUGCCUGAAGAGCCUUGGUUUUUUG [C34A U78A] | -3.26
2 | GACCAAUCUGCCCUCAGAGCUCGAGAACAUCUUGGGAUGCAGAGGAGGCAGGCUUCGGUGGCGCGAUAGCGCCAACGUCCUCAACUUCCAAUGCAUCCCACCACAUGAUGAUGCCUGAAGAGCCUUGGUUUUUUG [C34G C86U] | -6.51
3 | GACCAAUCUGCCCUCAGAGCUCGAGAACAUCUUAGGAUGCAGAGGAGGCAGGCUUCGGUGGCGCGAUAGCGCCAACGUCCUCAACCUCCAAUGCAUCCCACCACAUGAUGAGGCCUGAAGAGCCUUGGUAUUAUG [C34A U112G U130A U133A] | -3.74
4 | GACCAAUCUGCCCUCAGAGCUCGAGAACAUCUUAGGAUGCAGAGGAGGCAGGCGUAGGUGGCGCGAUAGCGCCAACGUCCUCAACCUCCAAUGCAUCCCACCACAUGAUGAUGCCUGAAGAGCCUUGGUUUUUUG [C34A U54G C56A] | -4.3
5 | GACCAAUCUGCCCUCAGAGCUCGAGAACAUCUUGGGAUGCAGAGGAGGUAGGCUUCGGUGGCGCGAUAGCGCCAACGUCCUCAACCUCCAAUGCAUCCCACCACAUGAUGAUGCCUGAAGAGCCUUGGUUUUUUG [C34G C49U] | -6.27
6 | GACCAAUCUGCCCUCAGAGCUCGAGAACAUCUUGGGAUGCAGAGGAGGCAGGCUUCGGUGGCGAGAUAGCGCCAACGUCCUCAACCUCCAAUGCAUCCCACCACAUGAUGAUGCCCUAAGAGCCUUGGUUUUUUG [C34G C64A U116C G117U] | -7.25
7 | GACCAAUCUGCCCUCAGAGCUCGAGAACAUCUUGGGAUGCAGAGGAGGCAGGGUUCGGUGGCGCGAUAGCGACAACGUCCUCAACCUCCAAUGCAUCCCACCAAAUGAUGAUGCCUGAAGAGCCUUGGUUUUUUG [C34G C53G C72A C104A] | -4.72
8 | GACCAAUCUGCCCUCAGAGCUCGAGAACAUCUUGGGAUGUAGAGGAGGCAGGCUUCGGUGGCGCGAUAGCGCCAACGUCCUCAACCUCCAAUGCAUCCCACCACAUGAUGAUACCUGAAGAGCAUUGGUUUUUUG [C34G C40U G113A C124A] | -7.14
9 | GACCAAUCUGCCCUCAGAGCUCGAGAACAUCUUGGGAUGCAGAGGAGGCAGGCUUCGGUGGCGCGAUAGCGCCAACGUCCUCAACCUCCAAUGCGUCCCACCACAUGAGGAUGCCUCAAGAGCCUUGGUUUUUUG [C34G A95G U109G G117C] | -6.44
10 | GACCAAUCUGCCCUCAGAGCUCGAGAACAUCUUGGGAUGCAGAGGAGGCAGGGUUCGGUGCCGCGAUAGCGCCAACGUCCUCAACCUCCAAUGCAUCCCACCACAUGAUGAUGCCCGAAGAGCCUUGGUUUUUUG [C34G C53G G61C U116C] | -7.12
11 | GACCAAUCUGCCCUCAGAGCUCGAGAACAUCUUGGGAUGCAGAGGAGGCAGGCUUCGGUGGCGCGAUAGCGCCAACGUCCUCAACCUCCAAUGCAUCCCACCACAUGAUGAUGCCUGAAGAGCCUUGGUUUUUUG [C34G] | -6.09
12 | GACCAAUCUGCCCUCAGAGCUCGAGAACAUCUUGGGAUGCAGAGGAGGCAGGCUUCGGUGGCGCGAUAGCGCCAACGUCCUCAACCUCCAAUGCAUCCCAUCACAUGAUGAUGCCUGAAGAGCCUUGGUUUUUUG [C34G C101U] | -6.46
13 | GACCAAUCUGCCCUCAGAGCUCGAGAACAUCUUGGGAUGCAGAGGAGGCGGGCUUCGGUGGCGCGAUAGGGCCUACGUCCUCCACCUCCAAUGCAUCCCACCACAUGAUUAGGCCUGAACAGCCUUGGUUUUUUG [C34G A50G C70G A74U A83C G110U U112G G120C] | -6.67
14 | GACCAAUCUGCCCUCAGAGCUCGAGAACAUCUUGGGAUGCAGAGGAGGCAGGCUUCGGUGGCGCGAUCGCGCCAACGUCCUCAACCUCCAAUGCAUCCCACCACAUGAUGAUUCCUGAAGAGCCUAGGUUUUCUG [C34G A68C G113U U126A U133C] | -5.64
15 | GACCAAUCUGCCCUCAGAGCUCGAGAACAUCUUGGGAUGCAGGGGAGGCAGGAUUCGGUGGCGCGAUAGCGCCAACGUCCUCAACCUCCAAUGCAUCCCACCACAUGAUGCUGCCUGAAGAGGCUUGGUUUUUUG [C34G A43G C53A A111C C123G] | -6.97
16 | GACCAAUCUGCCCUCAGAGCUCGAGAACAUCUUAGGAUGCAGAGGAGGCAGGCUUCGGAGGCGCGAUAGCGCCAACGUCCUCAACCUCCAAUGCAUCCCACCACAUGAUGAUGCCUGAAGAGCAUUGGUUUUUUG [C34A U59A C124A] | -0.848
17 | GACCAAUCUGCCCUCAGAGCUCGAGAACAUCUUAGGAUGCAGAGGAGGCAGGCUUCGGUGGCGCGAUAGCGCCAACGUCCUCAACCUCCAAUGCAUCCCACCACAUGAUGAUGCCUGAACAGCCUUGGUUUUUUG [C34A G120C] | -1.97
18 | GACCAAUCUGCCCUCAGAGCUCGAGAACAUCUUGGGAUGCAGAGGAGGCAGGUUUCGGUGUCGCGAUAGCGCUAACGUCCUCAACCUCCAAUGCAUCCCACCACAUGAUGAUCGCUGAAGAGCCUUGGUUUUUUG [C34G C53U G61U C73U G113C C114G] | -8.49
19 | GACCAAUCUGCCCUCAGAGCUCGAGAACAUCUUAGGAUGCAGAGGAGGCAGGCUUCGGUGGCGCGAUAGCGCCAACGUCCUCAACCACCAAUGCAUCCCACCACAUGAUGAUGCCUGAAGAGCCUUGGUUUUUUG [C34A U87A] | -3.34
20 | GACCAAUCUGCCCUCAGAGCUCGAGAACAUCUUAGGAUGCAGAGGAGGCAGGCUUCGGAGGCGCGAUAGCGCCAACGUCCUCAACCUCCAAUGCAUCCCACCACAUGAUGAUGCCUGAAGAGCCUUGGUUUUUUG [C34A U59A] | -2.58
21 | GACCAAUCUGCCCUCAGAGCUCGAGAACAUCUUGGGAUGCAGAGGAGGCAGGCUUAGGUGGCGCGAUAGCGCCAACGUCCUCAACCUCCAAUGCAUCCCACCACACGAUGAUGCCUGAAGAGCCUUGGUUUUUUG [C34G C56A U106C] | -6

Row | Variant | polymerase ribozyme fitness (log ratio)
22 | GACCAAUCUGCCCUCAGAGCUCGAGAACAUCUUAGGAUGCAGAGGAGGCAGGCUUCGGUGGCGCGAUAGCGCCAACGUCCUCAACCUCCAAUGCAUCCCACCACAUGAUGAUGCCUGAACAGCCUUGGUGUUUUG [C34A G120C U130G] | -3.21
23 | GACCAAUCUGCCCUCAGAGCUCGAGAACAUCUUGGGAUGCAGAGGAGGCAGGCUUCGGUGGCGCGAUAGCGCGAACGUCCUCAACCUCCAAUGCAUCCCACCACAUGAUGAUGCCAGAAGUGCCUUGGUUUUUUG [C34G C73G U116A A121U] | -5.9
24 | GACCAAUCUGCCCUCAGAGCUCGAGAACAUCUUAGGAUGCAGAGGAGGCAGGCUUCGGCGGCGCGAUAGCGCCAACGUCCUCAACCUCCAAUGCAUCCCACCACAUGAUGAUGCCUGAAGAGCCUUCGUUUUUUG [C34A U59C G127C] | -4.66
25 | GACCAAUCUGCCCUCAGAGCUCGAGAACAUCUUAGGAUGCAGAGGAGGCAGGCUUCGGUGGCGCGAUAGCGCCAACGUCCUCAACCUCCAAUGCAUCCCACCACAUGAUGAUGCCUGAAGAGCCUUGGCUUUUUG [C34A U129C] | -3.48
26 | GACCAAUCUGCCCUCAGAGCUCGAGAACAUCUUAGGAUGCAGAGGAGGCAGGCUUCGGUGGCGCGAUAGCGCCAACGUCCUCAACCUCCAAUGCAUCCCACCACAUGAUGAUGCCUGAAGAGCCUUGGGUUUUUG [C34A U129G] | -3.7
27 | GACCAAUCUGCCCUCAGAGCUCGAGAACAUCUUGGGAUGCAGAGGAGGCAGGCUUCGGUGGCGCGAUAGCGCCAACGUCCUCAACCUCCAAUGCAUCCCACCACAUGAUGAUGCCUGAAGAGACUUGGUUUUUUG [C34G C123A] | -6.76
28 | GACCAAUCUGCCCUCAGAGCUCGAGAACAUCUUAGGAUGCAGAGGAGGCAGGCUUCGGUGGCGCGAUAGCGCCAACGUCCUCAACCUCCAAUGCAUCCCACCACAUGAUGAUGCCUGAAAAGCGUUGGUUUUAUG [C34A G120A C124G U133A] | 0.189
29 | GACCAAUCUGCCCUCAGAGCUCGAGAACAUCUUAGGAUGCAGAGGAGGCAGGCUUCGGCGGCGCGAUAGCGCCAACGUCCUCAACCUCCAAUGCAUCCCACCACAUGAUGAGGCCUGAAGAGCCUUGGUUUUUUG [C34A U59C U112G] | -4.39
30 | GACCAAUCUGCCCUCAGAGCUCGAGAACAUCUUGGGAUGCAGAGGAGGCAGGGUUCGGUGGCGCGAUAGCGCCAACGUCCUCAACCUCCAAUGCAUCCCACCAAAUGAUGAUGCCUGAAGAGCCUUGGUUUUUUG [C34G C53G C104A] | -4.3
31 | GACCAAUCUGCCCUCAGAGCUCGAGAACAUCUUAGGAUGCAGAGGAGGCAGGCUUCGGUGGCGCGAUAGCGCCAACGUCCUCAACCUCCAAUGCAUCCCACCACAUGAUGAUGCCUGAAGAGCCUUGGUUAUUUG [C34A U131A] | -1.94
32 | GACCAAUCUGCCCUCAGAGCUCGAGAACAUCUUGGGAUGCAGAGGAGGCAGGCUUCGGUGGCGCGAUAGCGACAACGUCCUCAACCUCCAAUGCAUCCCACCACAUGAUGAUGCCUGAAGAGCCUUGGUUUUUUG [C34G C72A] | -6.05
33 | GACCAAUCUGCCCUCAGAGCUCGAGAACAUCUUGGGAUGCAGAGGAGGCAGGCUUCGGUGGCGCGAUAGCGCCAACGUCCUCAACCUCCAGUGCAUCCCACCACAUGAUGAUGACUGAAGAGCCUUGGUUUAUUG [C34G A91G C114A U132A] | -6.48
34 | GACCAAUCUGCCCUCAGAGCUCGAGAACAUCUUGGGAUGCAGAGGAGGCAGGCUUCGGUGGCGCGAUAGCGCCAACGUCCUCAACCUCCAAUGCAUUCCACCACAUGAUGAUGCCUGAAGAGACUUGGUUUUUUG [C34G C97U C123A] | -6.44
35 | GACCAAUCUGCCCUCAGAGCUCGAGAACAUCUUGGGAUGCAGAGGAGGCGGGCUUCGGUGGCGCGAUAGCGCCAACGUCCUCAACCUCCAAUGCAUCCCACCACAUGAUGAUGCCUGAAGAGCCUUGGUUUUUUG [C34G A50G] | -6.59
36 | GACCAAUCUGCCCUCAGAGCUCGAGAACAUCUUGGGAUGCAGAGGAGGCAGGCUUCGGUGGCGCGAUAGCGCCAACGUCCUCAACCUCCAAUGUAUCCCACCACAUGAUGAUGCCUGAAGAGCCUUGGUUUUUUG [C34G C94U] | -6.86
37 | GACCAAUCUGCCCUCAGAGCUCGAGAACAUCUUGGGAUGCAGAGGAGGCAGGCUUCGGUGGCGCGAUAGCGCCAACGUCCUCAACCUCCAAUGCAUCCCACCACAUGAUGAUGCAUGAAGAGCCUUGGUUUUUUG [C34G C115A] | -5.21
38 | GACCAAUCUGCCCUCAGAGCUCGAGAACAUCUUGGGAUGCAGAGGAGGCAGGCUUCGGUGGCGCGAUAGCGGCAACGUCCUCAACCUCCAAUGCACCCCACCUCAUGAUGAUGCCUGAAGAGCAUUGGUUUUUUG [C34G C72G U96C A103U C124A] | -7.14
39 | GACCAAUCUGCCCUCAGAGCUCGAGAACAUCUUGGGAUGCAGAGGAGGCAGGAUUCGGUGGCGCGAUAGCGCCAACGUCCUCAACCUCCAAUGCAUCCCACCACAUGAUGAUGCCUGAAGAGCCUUGGUUUUUUG [C34G C53A] | -5.71
40 | GACCAAUCUGCCCUCAGAGCUCGAGAACAUCUUGGGAUGCCGAGGAGGCAGGCUUCGGUGGCGCGAUAGCGCCAACGUCCUCAACCUCCAAUGCAUCCCCCCCCAUGAUGAAGCCUGAAGAGCCUUGGUUUUUUG [C34G A41C A100C A103C U112A] | -6.4
41 | GACCAAUCUGCCCUCAGAGCUCGAGAACAUCUUAGGAUGCAGAGGAGGCAGGCUUCGGAGGCGCGAUAGUGCCAACGUCCUCAACCUCCAAUGCAUCCCACCACAUGAUGAUGCCUGAAGAGCCUUGGUUUUUUG [C34A U59A C70U] | -5.58
42 | GACCAAUCUGCCCUCAGAGCUCGAGAACAUCUUGGGAUGCAGAGGGGGCAGGCUUCGGUGGCGCGAUAGCGCCAACGUCCUCAACCUCCACUGCAUCCCACCACAUGAUGAUGCCUGAAGAGCCUUGGUUUUUUG [C34G A46G A91C] | -8.04
